The record followed here is the supplement of paper PMC10567573.

± gives the standard deviation.

The data set in a line: protein stability index of a GFP-peptide fusion (GPS, HEK-293T) (PSI 1-6); higher = more stable.
Where [1] appears, read: treatment: DMSO, c terminus: a fixed tail appended.
[2] abbreviates: treatment: MLN4924 1 uM, 8 h, c terminus: a fixed tail appended.
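Further: 24-mer peptide tiles fused after GFP, lentivirally expressed, FACS-sorted into six equal bins by GFP/DsRed ratio, decoded by Illumina sequencing, PSI is the read-weighted mean bin number.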

Turning to GGWFCEGSFNGSEKETMQFLNDRL [KRT36], the protein stability index was 3.27 ± 0.23 under setting [1] and 3.17 ± 0.41 under setting [2].
On to GGYLTELEDGFYLTAFICFLVFIL [MFSD9], for which the protein stability index worked out at 1.98 ± 0.22 under setting [1] and 2.14 ± 0.34 under setting [2].
The corresponding values for GHGIVGTIVKARDKLYHPECFMCS [PDLIM4] are 2.45 ± 0.069 and 2.67 ± 0.21.
On to GILERYWLSSRAAAIKVNDSVPFH [MYORG], for which the protein stability index reads like this: under setting [1], 2.02 ± 0.42; under setting [2], 1.78 ± 0.28.
Consider GILTLAMIAFFFIIIYLGPMVLMI [CDS2], for which the protein stability index under setting [1] worked out at 2.7 ± 0.57 and the protein stability index under setting [2] was 2.48 ± 0.35.
The corresponding values for GKEVVKQLEEGLKDTDLARVRRFQ [M1AP] are 4.58 ± 0.35 and 4.62 ± 0.2.
As to GKIRRGAYALPAGLSAPARCLVRC [TRIB3], the protein stability index turned out to be 2.47 ± 0.23 under setting [1] and 2.7 ± 0.33 under setting [2].
Regarding GLPFILRPTSCWQLDWDELETNQQ [M1AP], the protein stability index came out at 2.62 ± 0.056 under setting [1] and 2.67 ± 0.24 under setting [2].
With GLQNCVYPWDENHCKEKRKTSLLD [NETO1], the protein stability index by setting is: under setting [1], 3.24 ± 0.25; under setting [2], 3.52 ± 0.28.
Regarding GMKIDLIDGKGRGVIATKQFSRGD [KMT5A], the protein stability index is, setting by setting: under setting [1], 3.49 ± 0.15; under setting [2], 4 ± 0.63.
On to GMLKEGVRLDRVRGGRQKYKRRID [ESRRG], for which the protein stability index reads like this: under setting [1], 4.19 ± 0.14; under setting [2], 4.15 ± 0.33.
Turning to GPAHGPAQEEPWEKKESLGAAQEA [ZNF232], the protein stability index amounted to 5.6 ± 0.22 under setting [1] and 5.49 ± 0.16 under setting [2].
The like results for GPALWLRSTCVYVCALSALPAGPL [PLEKHN1] were, in that order, 2.98 ± 0.63 and 3.27 ± 0.74.
For the sequence GPPRAPGRSGWPAGGAPGSPIPSP [HES6], the protein stability index was determined as 4.32 ± 0.18 under setting [1] and 4.26 ± 0.2 under setting [2].
In the case of GPYDPNSVRISFAKGWGPCYSRQF [SMAD6], the protein stability index is, setting by setting: under setting [1], 2.19 ± 0.17; under setting [2], 2.25 ± 0.18.
GQPFNSDDRNTACHHGLVADSLQA [DLC1]: the protein stability index is, setting by setting: under setting [1], 4.49 ± 0.2; under setting [2], 4.63 ± 0.1.
The corresponding values for GQVTPRGLRLRLPRRESLLRGLCR [C6orf223] are 3.24 ± 0.33 and 3.23 ± 0.34.
Consider GRARFTTYEVRMRTNLPIFKLKES [SNX12], for which the protein stability index runs as follows: under setting [1], 2.27 ± 0.11; under setting [2], 2.17 ± 0.22.
GRKRRQTSMTDFYHSKRRLIFSKR [CDKN1A]: the protein stability index under setting [1] was determined as 3.35 ± 0.51 and the protein stability index under setting [2] stood at 4.07 ± 0.38.
Turning to GSAPNSPMALLTIGSSSEKEIDDV [TFE3], the protein stability index runs as follows: under setting [1], 5.26 ± 0.28; under setting [2], 5.55 ± 0.18.
Consider GSAVARAVCKATTHEVMGPKKKHL [SNAP91], for which the protein stability index runs as follows: under setting [1], 4.58 ± 0.19; under setting [2], 4.83 ± 0.17.
The corresponding values for GSSRPCLDFLQEVTRQPRNLQDLC [ASB7] are 3.9 ± 0.31 and 3.97 ± 0.23.
With GSSYPTTTISYLPHAPPFAGGHPA [JUNB], the protein stability index runs as follows: under setting [1], 3.12 ± 0.14; under setting [2], 3.09 ± 0.13.
As to GTPADTGDLSPGHGASAPSVSREA [PWWP2B], the protein stability index under setting [1] is 5.29 ± 0.18 and the protein stability index under setting [2] is 5.56 ± 0.22.
In the case of GTTLRGRSDADLVVFLSPLTTFQD [OAS1], the protein stability index came to 2.18 ± 0.4 under setting [1] and 2.28 ± 0.31 under setting [2].
With GVRDSGSPPLHANTSLHVFVLDEN [PCDHGC5], the protein stability index is 3.51 ± 0.21 under setting [1] and 3.51 ± 0.24 under setting [2].
The sequence GVYGLQRNLLVENIIDIYKQESTR [TRIM55] displayed a protein stability index under setting [1] of 2.61 ± 0.47 and a protein stability index under setting [2] of 2.95 ± 0.49.
GWWKRLFTLKEEKPKMYFMTMIVS [ARL6IP1]: the protein stability index worked out at 2.95 ± 0.66 under setting [1] and 2.04 ± 0.57 under setting [2].
In the case of GYNLTSISESMAACTRSLLGDPPP [HDAC6], the protein stability index was 3.52 ± 0.38 under setting [1] and 3.4 ± 0.2 under setting [2].
As to HEGEDQFLSLEASTETLVHVSDED [DLC1], the protein stability index under setting [1] is 5.61 ± 0.17 and the protein stability index under setting [2] worked out at 5.58 ± 0.32.
With HEKERPEHKSLESLADGGSASPIK [FANCE], the protein stability index runs as follows: under setting [1], 5.49 ± 0.21; under setting [2], 5.31 ± 0.25.
As for HEQALFIYVHILKDTRMAEEYCHK [VPS39], the protein stability index stood at 2.57 ± 0.62 under setting [1] and 2.4 ± 0.59 under setting [2].
As to HFDVLPTEFTLGDDKHYGGFTNKQ [PTPRD], the protein stability index runs as follows: under setting [1], 4.48 ± 0.16; under setting [2], 4.47 ± 0.25.
With HHPENGEEAVTVLEDLESELDDPG [ZNF24], the protein stability index was found to be 5.49 ± 0.22 under setting [1] and 5.65 ± 0.16 under setting [2].
In the case of HHVPGGGNVKIDSQKLNFREHAKA [MAP2], the protein stability index by setting is: under setting [1], 4.3 ± 0.43; under setting [2], 4.4 ± 0.27.
In the case of HKACEVAPLQSVFQGQKTELNNCI [TRIM63], the protein stability index is, setting by setting: under setting [1], 3.78 ± 0.12; under setting [2], 3.67 ± 0.41.
As to HKHVHFSSSFTSIASEWFLIANRS [SLC22A15], the protein stability index worked out at 2.43 ± 0.57 under setting [1] and 2.04 ± 0.33 under setting [2].
With HLDIWKSAAWMKERTSPGAIHYCA [SPDEF], the protein stability index under setting [1] amounted to 2.21 ± 0.39 and the protein stability index under setting [2] was 2.4 ± 0.32.
Regarding HLDRTSVSSLSEVEEVDMAEEFEQ [ELOA2], the protein stability index is, setting by setting: under setting [1], 5.66 ± 0.34; under setting [2], 5.48 ± 0.4.
The like results for HLGCMHYTVRAPVGVAGLISPWNL [ALDH8A1] were, in that order, 2.48 ± 0.97 and 2.31 ± 0.64.
For HLLSWFSPTIIFDNWIPLLWCANI [DHCR7], the protein stability index is, setting by setting: under setting [1], 2.98 ± 0.18; under setting [2], 3.08 ± 0.21.
On to HLTRHQRTHTGEKPYKCTLCGENF [ZNF263], for which the protein stability index under setting [1] stood at 3.36 ± 0.53 and the protein stability index under setting [2] was determined as 3.45 ± 0.51.
Turning to HMESRMVTETEETQEKKAESKEPI [SDE2], the protein stability index is 5.48 ± 0.17 under setting [1] and 5.46 ± 0.47 under setting [2].
Regarding HNDRVQALSYAQHTRQLISCGGDG [WDFY2], the protein stability index is 2.77 ± 0.28 under setting [1] and 2.53 ± 0.17 under setting [2].
Consider HRAVASRSEEAVQVLIKHSADVNA [ANKRD44], for which the protein stability index reads like this: under setting [1], 4.5 ± 0.28; under setting [2], 4.47 ± 0.31.
In the case of HSAVARISRAQYNALTLTFQRAMH [STX11], the protein stability index reads like this: under setting [1], 2.08 ± 0.31; under setting [2], 2.14 ± 0.19.
The corresponding values for HTFNAHAATDITGFGILGHSQNLA [SEPHS2] are 3 ± 0.35 and 3.04 ± 0.24.
On to HTGEKPYKCLECGKAFSQNSGLIN [ZNF24], for which the protein stability index is, setting by setting: under setting [1], 2.68 ± 0.19; under setting [2], 2.88 ± 0.21.
Take HTRSPYSTFYPPYHSPELTTPPGH [NEUROD6]: the protein stability index amounted to 3.23 ± 0.14 under setting [1] and 3.18 ± 0.15 under setting [2].
On to HWNSTIKRKVDTGGFLSESKDCKP [MYBL2], for which the protein stability index is, setting by setting: under setting [1], 3.93 ± 0.57; under setting [2], 4.12 ± 0.32.
Take HWPQGPTGPPGPPGPMGPPGPPGP [EMID1]: the protein stability index is, setting by setting: under setting [1], 4.66 ± 0.22; under setting [2], 4.73 ± 0.45.
With HYMEENLMDGGDLPSVTDIRRPRL [PLK2], the protein stability index came out at 4.15 ± 0.16 under setting [1] and 4.22 ± 0.13 under setting [2].
For the sequence IAENGVSERDSEAAKQNHVTADDF [EHMT1], the protein stability index under setting [1] was 5.39 ± 0.15 and the protein stability index under setting [2] amounted to 5.42 ± 0.11.
As to IEEYMVHVEEHFQLLARRMQVDKK [FUT8], the protein stability index was determined as 3.06 ± 0.35 under setting [1] and 3.2 ± 0.27 under setting [2].
The corresponding values for IELAPLSMPRINHGVLSAEGFLFV [GAN] are 3.34 ± 1.1 and 2.81 ± 0.61.
Consider IETEDQIDKKPVSEKTDESDTIPY [MIA2], for which the protein stability index runs as follows: under setting [1], 5.53 ± 0.3; under setting [2], 5.3 ± 0.36.
IEVKTKGGSKYLIYRRYRQFHALQ [NCF4]: the protein stability index reads like this: under setting [1], 2.22 ± 0.35; under setting [2], 2.2 ± 0.33.
IFMLCTLVLAIPLLLILVSYVHIL [OR10K2]: the protein stability index was 3.35 ± 0.26 under setting [1] and 3.18 ± 0.36 under setting [2].
In the case of IFYGSGIFNYMRLGSTKLSDKDKA [OR3A1], the protein stability index was found to be 1.93 ± 0.23 under setting [1] and 2.12 ± 0.19 under setting [2].
With IGPNVLMVHKRSHTGERPFQCNQC [IKZF1], the protein stability index is, setting by setting: under setting [1], 2.93 ± 0.26; under setting [2], 3.17 ± 0.43.
Consider IIEYRGKFMLREQFEANGYFFKRP [KMT2E], for which the protein stability index came out at 2.31 ± 0.63 under setting [1] and 2.37 ± 0.36 under setting [2].
Turning to IIKQLKDVFERDWYSPYAKTLQPT [PLD5], the protein stability index by setting is: under setting [1], 1.98 ± 0.59; under setting [2], 1.97 ± 0.39.
Turning to IIQYRLPMKKNNNLYSWDDFMELG [ACSBG2], the protein stability index was found to be 2.12 ± 0.32 under setting [1] and 1.98 ± 0.25 under setting [2].
The like results for IKEIDEHAPGVPRILVGNRLHLAF [RAB40C] were, in that order, 2.21 ± 0.21 and 2.06 ± 0.28.
The like results for IKRTIRVLDVNNQSFREQEEPSNK [NET1] were, in that order, 3.68 ± 0.42 and 3.93 ± 0.26.
As to ILFSLPPALDWDSVHVPGPHAMTI [PTPN9], the protein stability index under setting [1] came out at 2.66 ± 0.42 and the protein stability index under setting [2] is 2.35 ± 0.62.
In the case of ILKIRHGWEDVTKINKTEICSQL [STEAP1], the protein stability index (treatment: DMSO, c terminus: native) was 2.42 ± 0.57 and the protein stability index (treatment: MLN4924 1 uM, 8 h, c terminus: native) was 2.2 ± 0.21.
On to ILLDGSEYTCDVEKRSRGQVLFDK [EPB41L3], for which the protein stability index reads like this: under setting [1], 2.86 ± 0.55; under setting [2], 2.94 ± 0.61.
For ILTLTMISLFFLIIYMGSFMLMLL [CDS1], the protein stability index under setting [1] stood at 2.4 ± 0.65 and the protein stability index under setting [2] amounted to 2.35 ± 0.39.
The like results for IPKVELQISIYGVKILEPKTKEVQ [GULP1] were, in that order, 2.46 ± 0.51 and 1.98 ± 0.23.
On to IQDNGTGIRKEDLDIVCERFTTSK [MLH1], for which the protein stability index under setting [1] turned out to be 4.17 ± 0.2 and the protein stability index under setting [2] is 4.46 ± 0.33.
The corresponding values for IQGADTIRCVYILDPWFAGSSNVG [CRY1] are 2.81 ± 0.56 and 2.6 ± 0.54.
